Numbering of substitutions follows the chain as printed.
B1: COV93-17 (antibody, V domains shown)
VH: EVQLVQSGAEVKKPGESLRISCRGSGYSFTNYWISWVRQMPGKGLEWMGRIDPTDSYTNYSPSFQGHVTISTDKSISTAYLQWSSLKASDTAMYYCARHKNGMIHEYDYWGQGILVTVSS
VL: DIQLTQSPSTLSASVGDRVTITCRASQSIRSWLAWYQQKPGKAPKLLIYRASSLESGVPSRFSGSGSGTEFTLTISSLQPDDFATYYCQQYGTFGPGTKVDIR
B2: COV77-05 (antibody, V domains shown)
VH: QMQLHESGPGLVKPSQTLSLTCAVSGGSISSDGYYWNWVRQHPGKGLELIAYIYYNGRPYYNPSLRSRVNISLDTSMNQFSLRMKSLTAADTAVYYCARGRLGYCAGGSCFLESFDYWGQGALVTVSS
VL: EIVMTQSPATLSVSPGETATLSCRASESISSNLAWYQQKPGQAPRLLIYGASTRATGIPARFSGSGSGTEFALTISSLQAEDFAVYSCQQYHNWLLTFGGGTKVEIK
B3: COV93-08 (antibody, V domains shown)
VH: QVQLRESGPGVVKPSGTLSLTCTVSGDFINNNRWWTWVRQSPGKGLEWIGEIYHSGSTNYNPSLKGRVTISVDKSKNHFSLKLTSVTAADTAMYYCARGGYCTVGDCHDNWFDPWGQGTLVTVSS
VL: DIQMTQSPSTLSASVGDRVTITCRASQNINSWLAWYQQKPGKAPKVLIYKASSLESGVPSRFSGSVSGTEFTLTISSLQPDDFATYYCQQYSTLSWTFGQGTKVDIK
B4: COV93-38 (antibody, V domains shown)
VH: B3 VH with R5Q, T23A, I29S, Y53H, H54Q, G66S, V68I, H78Q, M93V, T103S
VL: B3 VL with N28T, T93S
B5: COV77-42 (antibody, V domains shown)
VH: QVYLQESGPGLVKPSQTLSLTCAVSGGSIRSDGYYWTWIRQHPGKGLEWIGNTYYNGNTYYNPSLRSRVTTSLDTSKNQFSLKVVSMTGADTAVYYCARGRLGFCAGGACFLDTLDYWGQGTLVTVSS
VL: EIVMTQSPVTLSVSPGERVTLSCRADQSVNNNLAWYQQKPGQAPRLLIHGASTRATGIPARFSGSGSGTEFTLTISSLQSEDFAIYYCQQYYNWLLTFGGGTKLEIK
B6: COV44-25 (antibody, V domains shown)
VH: QVQLVDSGGGAVQPGTSLRLSCAASGFTFNTYAFHWVRQAPGKGLEWVAVISDDGNNKYYADSVKGRFTISRDDSKNTLSLQMDSLRVEDAAVYFCARGSYNSNWSLGEYFDYWGQGSLVTVSS
VL: DIVMTQSPDSLPVSLGERATINCKSSQSVLHSSNNKNYLAWYQQKPGQSPKLLISWASTRESGVPDRFSGSGSGTHFTLTISSLRAEDVAVYYCLQYFNNQYTFGQGTKLEIK
B7: COV30-35 (antibody, V domains shown)
VH: QVQLQESGPGQVKPSGTLSLTCAVSGGSINSSNWWSWVRQPPGKGLEWIGEIFHSGNTNYKPSLESRVTISFDKSKKELSLRLTSVTAADTAVYYCATLFCSGGTCYLGDWGQGTLVTVSS
VL: EIVLTQSPGTLSVSPGQRATLSCRASESVSSRYVAWYQQKPGQAPRLIIYGASSRATGIPDRFSGSGSGTEFILSISRLEPEDSAVYYCQQYGSSPTFGGGTKVEIK
B8: COV89-22 (antibody, V domains shown)
VH: QEQLVQSGAEVKKPGASVKVSCKSSGFTFSYFYLHWVRQAPGQGLEWMGIINPRGDGTRYAQKFQGRVTMTRDASTGTLYMELRSLRSEDTAVYYCARGADHGAFDIWGQGTMVTVSS
VL: EIVLTQSPGTLSLSPGERATLSCRASQSVRRNYFAWYQQKRGQAPRLLIYDASTRATGIPDRFSGSGSGTDFTLTISRLEPEDFAVYYCQQYDSSPPMYIFGQGTKLEIK
B9: COV72-37 (antibody, V domains shown)
VH: QVQLVQSGAEVKKPAASVKVSCKASGDTFSSHYMHWVRQAPGQGPEWMGIINPSGSGTAYGQKFQGRLTMTRDTSTSTVYMELSSLTSDDTAVYYCGGGSGGLFAYWGQGTLVTVSS
VL: EIVLTQSPGTLSLSPGERATLSCRASQIVRSNYLAWYQQKPGQAPRLLIYGASSRATGTPDRFSGGGSGTDFTLTINRLEPEDFAVYYCLQYDSSPPTYIFGQGTKLEIK
B10: COV30-14 (antibody, V domains shown)
VH: QVQLVQSGAEVKKPGASVKVSCQTSGYTFTSYYMHWVRQAPGQGLEWMGLITPSGDDTYYAQRFQGRVTMTRDTSTSPTYMELSSLTSEDTAVYYCAKMSRAGGFDVWGQGTLVTVSS
VL: EVVLTQSPGTLSLSPGERATLSCRASQSITGRYLAWYQQKPGQAPRLLMYGESSRVTGIPDRFSGGGSGTDFTLTISRLEPEDFAVYYCQHFASSPPTYTFGQGTKLEIR

The binders below were run against SARS-CoV-2 spike receptor binding domain (RBD), recombinant (SARS-CoV-2, UniProt P0DTC2 319-541) (assay: bead flow cytometry, AUC minus CD4).
B1: no binding (tested: 200 µg/mL). B2: no binding (tested: 200 µg/mL). B3: no binding (tested: 200 µg/mL). B4: no binding (tested: 200 µg/mL). B5: no binding (tested: 200 µg/mL). B6: no binding (tested: 200 µg/mL). B7: no binding (tested: 200 µg/mL).

Each binder was assayed against SARS-CoV-2 spike N-terminal domain (NTD), recombinant (SARS-CoV-2, UniProt P0DTC2 14-305) (assay: bead flow cytometry, AUC minus CD4).
B1: no binding (tested: 200 µg/mL). B8: no binding (tested: 200 µg/mL). B2: no binding (tested: 200 µg/mL). B9: no binding (tested: 200 µg/mL). B3: no binding (tested: 200 µg/mL). B4: no binding (tested: 200 µg/mL). B5: no binding (tested: 200 µg/mL). B10: no binding (tested: 200 µg/mL). B6: no binding (tested: 200 µg/mL). B7: no binding (tested: 200 µg/mL).

The binders below were run against T1, HCoV-229E spike protein (Sino Biological 40605-V08B) (HCoV-229E, UniProt P15423 16-1115) (assay: bead flow cytometry, AUC minus CD4).
T1 sequence: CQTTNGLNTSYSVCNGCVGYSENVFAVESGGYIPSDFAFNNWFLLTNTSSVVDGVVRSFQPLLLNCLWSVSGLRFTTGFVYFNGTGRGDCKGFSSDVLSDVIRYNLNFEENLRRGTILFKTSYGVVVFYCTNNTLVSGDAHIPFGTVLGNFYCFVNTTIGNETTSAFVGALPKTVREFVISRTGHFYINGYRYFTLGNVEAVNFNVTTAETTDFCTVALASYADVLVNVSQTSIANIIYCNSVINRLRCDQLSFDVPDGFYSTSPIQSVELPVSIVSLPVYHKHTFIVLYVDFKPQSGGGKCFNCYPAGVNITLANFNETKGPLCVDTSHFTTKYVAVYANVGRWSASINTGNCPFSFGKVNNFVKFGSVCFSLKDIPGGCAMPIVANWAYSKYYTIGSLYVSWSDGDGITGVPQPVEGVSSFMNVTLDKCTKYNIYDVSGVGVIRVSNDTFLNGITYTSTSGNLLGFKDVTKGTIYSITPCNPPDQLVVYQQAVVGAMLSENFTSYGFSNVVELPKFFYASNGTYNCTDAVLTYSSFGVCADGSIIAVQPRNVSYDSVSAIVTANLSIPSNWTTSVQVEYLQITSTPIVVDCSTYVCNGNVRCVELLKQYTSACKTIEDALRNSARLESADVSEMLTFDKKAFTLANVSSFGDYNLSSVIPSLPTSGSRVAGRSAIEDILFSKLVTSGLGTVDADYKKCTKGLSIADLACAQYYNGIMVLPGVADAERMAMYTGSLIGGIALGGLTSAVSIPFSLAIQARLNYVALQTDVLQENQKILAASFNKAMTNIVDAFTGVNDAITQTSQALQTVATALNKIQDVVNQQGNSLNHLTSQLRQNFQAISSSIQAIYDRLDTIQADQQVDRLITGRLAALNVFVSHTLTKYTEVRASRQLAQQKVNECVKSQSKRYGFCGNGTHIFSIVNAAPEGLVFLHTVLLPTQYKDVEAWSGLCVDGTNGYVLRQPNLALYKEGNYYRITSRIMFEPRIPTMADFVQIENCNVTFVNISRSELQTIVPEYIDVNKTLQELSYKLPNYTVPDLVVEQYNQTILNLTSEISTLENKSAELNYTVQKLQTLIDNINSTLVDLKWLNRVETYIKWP
B1: no binding (tested: 200 µg/mL). B9: no binding (tested: 200 µg/mL). B3: no binding (tested: 200 µg/mL). B4: no binding (tested: 200 µg/mL). B10: no binding (tested: 200 µg/mL).

What follows are binders tested against T2, HCoV-NL63 spike protein (Sino Biological 40604-V08B) (HCoV-NL63, UniProt Q6Q1S2 19-1296) (assay: bead flow cytometry, AUC minus CD4).
T2 sequence: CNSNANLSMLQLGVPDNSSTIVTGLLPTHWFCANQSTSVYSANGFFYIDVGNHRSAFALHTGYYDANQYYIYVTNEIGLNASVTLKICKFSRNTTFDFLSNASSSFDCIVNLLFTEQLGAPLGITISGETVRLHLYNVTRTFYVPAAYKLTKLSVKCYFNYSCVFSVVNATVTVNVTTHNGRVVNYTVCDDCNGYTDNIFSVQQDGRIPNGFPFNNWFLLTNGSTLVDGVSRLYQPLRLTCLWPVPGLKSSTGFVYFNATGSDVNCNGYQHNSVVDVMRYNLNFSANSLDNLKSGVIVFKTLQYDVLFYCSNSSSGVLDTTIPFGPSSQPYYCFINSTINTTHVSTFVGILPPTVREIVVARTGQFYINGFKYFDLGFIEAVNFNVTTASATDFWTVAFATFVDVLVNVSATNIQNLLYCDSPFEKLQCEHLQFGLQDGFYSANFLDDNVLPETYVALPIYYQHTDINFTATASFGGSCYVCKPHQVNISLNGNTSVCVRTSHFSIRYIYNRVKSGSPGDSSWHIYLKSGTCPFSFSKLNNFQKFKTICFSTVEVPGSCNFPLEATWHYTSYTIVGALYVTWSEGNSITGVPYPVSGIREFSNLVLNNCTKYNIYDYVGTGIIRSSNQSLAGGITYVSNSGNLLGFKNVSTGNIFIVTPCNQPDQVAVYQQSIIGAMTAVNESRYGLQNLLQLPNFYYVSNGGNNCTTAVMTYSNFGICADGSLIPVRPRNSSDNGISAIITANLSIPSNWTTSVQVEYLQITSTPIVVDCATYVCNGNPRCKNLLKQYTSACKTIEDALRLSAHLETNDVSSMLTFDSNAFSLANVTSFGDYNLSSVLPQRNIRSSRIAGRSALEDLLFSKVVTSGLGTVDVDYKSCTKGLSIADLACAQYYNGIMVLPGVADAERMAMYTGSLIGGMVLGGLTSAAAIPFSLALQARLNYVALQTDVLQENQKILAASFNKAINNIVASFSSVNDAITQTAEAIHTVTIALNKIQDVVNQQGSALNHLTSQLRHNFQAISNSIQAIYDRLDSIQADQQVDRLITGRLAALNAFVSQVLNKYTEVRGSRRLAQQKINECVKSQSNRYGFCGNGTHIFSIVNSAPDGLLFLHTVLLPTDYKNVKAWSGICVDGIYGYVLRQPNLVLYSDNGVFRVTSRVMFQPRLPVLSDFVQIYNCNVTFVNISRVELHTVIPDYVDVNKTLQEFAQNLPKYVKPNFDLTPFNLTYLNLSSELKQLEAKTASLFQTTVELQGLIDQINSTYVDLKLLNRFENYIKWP
B1: no binding (tested: 200 µg/mL). B8: no binding (tested: 200 µg/mL). B2: no binding (tested: 200 µg/mL). B9: no binding (tested: 200 µg/mL). B3: no binding (tested: 200 µg/mL). B4: no binding (tested: 200 µg/mL). B5: no binding (tested: 200 µg/mL). B10: no binding (tested: 200 µg/mL). B7: no binding (tested: 200 µg/mL).

Source: patent publication US20250145690A1 (US Dept. of Health and Human Services, published 2025)
